We go through 1 protein from article PMC8539922, “Reconstitution of Caveolin-1 into Artificial Lipid Membrane: Characterization by Transmission Electron Microscopy and Solid-State Nuclear Magnetic Resonance” (Molecules, 2021).

This series deals with the molecule itself. The experiment in a line: negative-stain TEM + thioflavin-T fluorescence; peptide dissolved in DMSO, diluted to 1 mg/mL in 20 mM Tris, pH 8.0, incubated at 37 °C for 48 h.

Where no end group is shown, it is not given here.

B1: CAV1(168-178) peptide (peptide)
peptide: SNVRINLQKEI
modifications: not fully specified
notes: Caveolin-1, residues 168-178 of the α-isoform; The ends of the two caps as printed seem swapped (a rink amide resin gives a C-terminal amide; acetyl is usually N-terminal); also called CAV1 C-terminal peptide; CAV1 C-terminus; source: synthetic peptide (Fmoc solid phase, HPLC purified)
As for B1, the binding result was “binds”.
